*1 amine or outer side, *2 acyl side, *3 side chain or, on linkers, in order; H or OH if unused. Side-chain parts run from the residue outwards. The star is where a group is joined. C18 diacid = O=C(O)CCCCCCCCCCCCCCCCC(=O)*; γGlu = O=C(O)[C@H](CCC(=O)[*:2])N[*:1]; Isovaleryl = CC(C)CC(=O)*; AEEA = NCCOCCOCC(=O)O
T1: human neuropeptide Y2 receptor (human, UniProt P49146 1-381)
T1 construct: whole, on cells; also called hNPY2 receptor; hNPY2-R
T1 sequence (looked up): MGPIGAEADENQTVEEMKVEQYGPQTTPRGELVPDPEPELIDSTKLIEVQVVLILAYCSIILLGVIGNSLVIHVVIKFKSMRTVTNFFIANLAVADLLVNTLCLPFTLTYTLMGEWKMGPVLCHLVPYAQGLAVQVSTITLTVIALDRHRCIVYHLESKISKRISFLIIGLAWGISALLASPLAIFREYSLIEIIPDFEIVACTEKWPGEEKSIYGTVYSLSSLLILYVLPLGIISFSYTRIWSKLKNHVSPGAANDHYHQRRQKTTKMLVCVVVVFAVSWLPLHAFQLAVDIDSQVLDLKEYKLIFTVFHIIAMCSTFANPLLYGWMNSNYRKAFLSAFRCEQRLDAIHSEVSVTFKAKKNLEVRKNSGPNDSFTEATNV

T2: human NPY1 receptor (human, UniProt P25929 1-384)
T2 sequence (looked up): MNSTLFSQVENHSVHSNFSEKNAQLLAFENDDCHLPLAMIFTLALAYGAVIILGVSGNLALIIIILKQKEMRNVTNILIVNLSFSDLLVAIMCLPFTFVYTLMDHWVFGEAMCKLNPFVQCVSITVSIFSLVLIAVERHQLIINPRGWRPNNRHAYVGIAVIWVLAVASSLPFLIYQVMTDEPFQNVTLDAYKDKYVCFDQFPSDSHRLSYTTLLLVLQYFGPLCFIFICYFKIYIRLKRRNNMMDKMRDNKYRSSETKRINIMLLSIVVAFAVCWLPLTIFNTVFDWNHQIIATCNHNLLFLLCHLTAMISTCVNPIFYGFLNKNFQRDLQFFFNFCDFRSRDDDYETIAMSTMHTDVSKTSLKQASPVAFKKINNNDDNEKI

T3: human NPY5 receptor (human, UniProt Q15761 1-445)
T3 sequence (looked up): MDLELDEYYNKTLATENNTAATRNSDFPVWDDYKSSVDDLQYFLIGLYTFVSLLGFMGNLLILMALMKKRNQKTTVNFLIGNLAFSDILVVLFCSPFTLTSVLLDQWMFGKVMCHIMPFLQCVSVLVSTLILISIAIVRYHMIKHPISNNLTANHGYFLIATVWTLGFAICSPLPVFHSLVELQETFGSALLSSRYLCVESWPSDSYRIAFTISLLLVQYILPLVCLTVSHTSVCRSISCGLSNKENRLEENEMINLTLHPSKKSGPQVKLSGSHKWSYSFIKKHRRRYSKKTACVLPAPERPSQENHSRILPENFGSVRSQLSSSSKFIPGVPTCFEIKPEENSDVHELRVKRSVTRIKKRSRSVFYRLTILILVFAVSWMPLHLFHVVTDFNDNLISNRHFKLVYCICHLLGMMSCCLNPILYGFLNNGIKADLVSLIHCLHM

B1: Compound 188 (peptide)
peptide: Isovaleryl-APEK([AEEA-AEEA-γGlu-C18 diacid])PEEDAEPEELQRYYVSLRHYYNWLTRQRY-NH2
SMILES: CC(C)CC(=O)N[C@@H](C)C(=O)N1CCC[C@H]1C(=O)N[C@@H](CCC(=O)O)C(=O)N[C@@H](CCCCNC(=O)COCCOCCNC(=O)COCCOCCNC(=O)CC[C@H](NC(=O)CCCCCCCCCCCCCCCCC(=O)O)C(=O)O)C(=O)N1CCC[C@H]1C(=O)N[C@@H](CCC(=O)O)C(=O)N[C@@H](CCC(=O)O)C(=O)N[C@@H](CC(=O)O)C(=O)N[C@@H](C)C(=O)N[C@@H](CCC(=O)O)C(=O)N1CCC[C@H]1C(=O)N[C@@H](CCC(=O)O)C(=O)N[C@@H](CCC(=O)O)C(=O)N[C@@H](CC(C)C)C(=O)N[C@@H](CCC(N)=O)C(=O)N[C@@H](CCCNC(=N)N)C(=O)N[C@@H](Cc1ccc(O)cc1)C(=O)N[C@@H](Cc1ccc(O)cc1)C(=O)N[C@H](C(=O)N[C@@H](CO)C(=O)N[C@@H](CC(C)C)C(=O)N[C@@H](CCCNC(=N)N)C(=O)N[C@@H](Cc1c[nH]cn1)C(=O)N[C@@H](Cc1ccc(O)cc1)C(=O)N[C@@H](Cc1ccc(O)cc1)C(=O)N[C@@H](CC(N)=O)C(=O)N[C@@H](Cc1c[nH]c2ccccc12)C(=O)N[C@@H](CC(C)C)C(=O)N[C@H](C(=O)N[C@@H](CCCNC(=N)N)C(=O)N[C@@H](CCC(N)=O)C(=O)N[C@@H](CCCNC(=N)N)C(=O)N[C@@H](Cc1ccc(O)cc1)C(N)=O)[C@@H](C)O)C(C)C
B2: Compound 164 (peptide)
peptide: Isovaleryl-APEK([AEEA-AEEA-γGlu-C18 diacid])PEEDASEEELQEYYVSLRHYYNWLTRQRY-NH2
SMILES: CC(C)CC(=O)N[C@@H](C)C(=O)N1CCC[C@H]1C(=O)N[C@@H](CCC(=O)O)C(=O)N[C@@H](CCCCNC(=O)COCCOCCNC(=O)COCCOCCNC(=O)CC[C@H](NC(=O)CCCCCCCCCCCCCCCCC(=O)O)C(=O)O)C(=O)N1CCC[C@H]1C(=O)N[C@@H](CCC(=O)O)C(=O)N[C@@H](CCC(=O)O)C(=O)N[C@@H](CC(=O)O)C(=O)N[C@@H](C)C(=O)N[C@@H](CO)C(=O)N[C@@H](CCC(=O)O)C(=O)N[C@@H](CCC(=O)O)C(=O)N[C@@H](CCC(=O)O)C(=O)N[C@@H](CC(C)C)C(=O)N[C@@H](CCC(N)=O)C(=O)N[C@@H](CCC(=O)O)C(=O)N[C@@H](Cc1ccc(O)cc1)C(=O)N[C@@H](Cc1ccc(O)cc1)C(=O)N[C@H](C(=O)N[C@@H](CO)C(=O)N[C@@H](CC(C)C)C(=O)N[C@@H](CCCNC(=N)N)C(=O)N[C@@H](Cc1c[nH]cn1)C(=O)N[C@@H](Cc1ccc(O)cc1)C(=O)N[C@@H](Cc1ccc(O)cc1)C(=O)N[C@@H](CC(N)=O)C(=O)N[C@@H](Cc1c[nH]c2ccccc12)C(=O)N[C@@H](CC(C)C)C(=O)N[C@H](C(=O)N[C@@H](CCCNC(=N)N)C(=O)N[C@@H](CCC(N)=O)C(=O)N[C@@H](CCCNC(=N)N)C(=O)N[C@@H](Cc1ccc(O)cc1)C(N)=O)[C@@H](C)O)C(C)C
B3: Compound 105 (peptide)
peptide: Isovaleryl-APEK([AEEA-AEEA-γGlu-C18 diacid])PEEDAEPEELQEYYVSLRHYYNWLTRQRY-NH2
SMILES: CC(C)CC(=O)N[C@@H](C)C(=O)N1CCC[C@H]1C(=O)N[C@@H](CCC(=O)O)C(=O)N[C@@H](CCCCNC(=O)COCCOCCNC(=O)COCCOCCNC(=O)CC[C@H](NC(=O)CCCCCCCCCCCCCCCCC(=O)O)C(=O)O)C(=O)N1CCC[C@H]1C(=O)N[C@@H](CCC(=O)O)C(=O)N[C@@H](CCC(=O)O)C(=O)N[C@@H](CC(=O)O)C(=O)N[C@@H](C)C(=O)N[C@@H](CCC(=O)O)C(=O)N1CCC[C@H]1C(=O)N[C@@H](CCC(=O)O)C(=O)N[C@@H](CCC(=O)O)C(=O)N[C@@H](CC(C)C)C(=O)N[C@@H](CCC(N)=O)C(=O)N[C@@H](CCC(=O)O)C(=O)N[C@@H](Cc1ccc(O)cc1)C(=O)N[C@@H](Cc1ccc(O)cc1)C(=O)N[C@H](C(=O)N[C@@H](CO)C(=O)N[C@@H](CC(C)C)C(=O)N[C@@H](CCCNC(=N)N)C(=O)N[C@@H](Cc1c[nH]cn1)C(=O)N[C@@H](Cc1ccc(O)cc1)C(=O)N[C@@H](Cc1ccc(O)cc1)C(=O)N[C@@H](CC(N)=O)C(=O)N[C@@H](Cc1c[nH]c2ccccc12)C(=O)N[C@@H](CC(C)C)C(=O)N[C@H](C(=O)N[C@@H](CCCNC(=N)N)C(=O)N[C@@H](CCC(N)=O)C(=O)N[C@@H](CCCNC(=N)N)C(=O)N[C@@H](Cc1ccc(O)cc1)C(N)=O)[C@@H](C)O)C(C)C

Key:
[1] = target: T1, human neuropeptide Y2 receptor; experiment: RLB 6: apparent Ki of filtrate after incubation at pH 6.1-6.2
[2] = target: T1, human neuropeptide Y2 receptor; experiment: radioligand competition (125I-PYY(1-36)), hNPY2R membranes
Method in brief: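 Commercial human Y2 receptor membranes (0.5 μg protein/well) were incubated with peptide for 2 h at room temperature in 50 mM HEPES, 5 mM MgCl₂, 1 mM CaCl₂, pH 7.4, with 0.2% ovalbumin. Bound radioligand was separated on PEI-soaked GF/C filters and counted by scintillation, and IC₅₀ came from nonlinear sigmoidal regression.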

[3] = target: T1, human neuropeptide Y2 receptor; experiment: radioligand competition (125I-PYY(1-36)), hY2R membranes; DMSO stock
Procedure: (§1) The filtration RLB assay was carried out in 96-well plates in a final volume of 100 μl per well. Freeze-dried test peptides were dissolved in 100% dimethyl sulfoxide (DMSO) to stock solutions of 1 mM and serial dilutions were performed in assay buffer (50 mM HEPES, 5 mM MgCl₂, 1 mM CaCl₂, pH 7.4) containing 0.2% ovalbumin. […] Next, 80 μL membranes (HTS066M, ChemiSCREEN™ Human Neuropeptide Y2 Receptor Membrane Preparation, CHEMICON) were added to each well to give a final protein concentration of 0.5 μg/well. The plates were sealed and incubated at room temperature for 2 hours in a plate shaker set at 400 rpm. The incubation was stopped by vacuum filtration onto 0.5% poly-ethylene amine (PEI) presoaked GF/C filters using a 96-well FilterMate™ harvester (Perkin Elmer) followed by four washes with 300 μl/well ice-cold wash buffer (50 mM HEPES, 500 mM NaCl, pH7.4). Filter plates were then dried for 60 min at room temperature and the bottom of the plates was sealed with backing tape UniFilter-96. Finally, 50 μl/well scintillation counter cocktail (Microscint20, Packard) was added and the radioactivity was counted in the Packard TopCount NXT scintillation counter. IC₅₀ values (the half maximal inhibitory concentration of the agonist) were calculated by nonlinear regression analysis of sigmoidal dose-response curves.

[4] = target: T1, human neuropeptide Y2 receptor; experiment: cell-based or functional assay
human NPY4 receptor = human NPY4 receptor (human, UniProt P50391 1-375); experiment: cell-based or functional assay
human NPY1 receptor = target: T2, human NPY1 receptor; experiment: cell-based or functional assay
human NPY5 receptor = target: T3, human NPY5 receptor; experiment: cell-based or functional assay
[5] = target: T1, human neuropeptide Y2 receptor; experiment: RLB 7: apparent Ki of filtrate after incubation at pH 7.1-7.2
Procedure: as §1
Peptides (as TFA salts) were weighed out in a filter unit (Mini-UniPrep Syringeless Filter 0.45 μm, Whatman), and 0.1 M sodium diphosphate buffer at pH 6.4 or 7.4, respectively, or 0.2 M TRIS buffer at pH 8.3 was added to achieve 10 mg/ml final concentration. The peptide was (partially) dissolved by shaking the filter unit horizontally at approx. 400 rpm for 2 hours at room temperature. The sample was filtered to remove any insoluble particles.

Sequence of human NPY4 receptor (P50391 whole entry): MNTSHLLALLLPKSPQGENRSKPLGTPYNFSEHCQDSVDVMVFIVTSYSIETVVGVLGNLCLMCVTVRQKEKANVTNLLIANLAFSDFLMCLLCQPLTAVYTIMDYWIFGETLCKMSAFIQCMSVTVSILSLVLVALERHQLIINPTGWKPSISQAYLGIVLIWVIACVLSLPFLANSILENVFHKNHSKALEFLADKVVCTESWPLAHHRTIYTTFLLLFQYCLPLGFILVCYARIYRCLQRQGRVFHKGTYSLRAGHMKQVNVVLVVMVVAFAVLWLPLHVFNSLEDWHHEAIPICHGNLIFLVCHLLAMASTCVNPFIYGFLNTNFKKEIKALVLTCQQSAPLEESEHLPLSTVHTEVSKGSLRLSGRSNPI

Ki [1] [nM] | Ki [2] [nM] | Ki [3] [nM] | EC50 (HTRF cAMP Gi assay) [4] [nM] | EC50 (HTRF cAMP Gi assay) (human NPY4 receptor) [µM] | EC50 (HTRF cAMP Gi assay) (human NPY1 receptor) [µM] | EC50 (HTRF cAMP Gi assay) (human NPY5 receptor) [µM] | Ki [5] [nM] | Binder
6.6 | 1.19 | 3.5 |  |  |  |  |  | Isovaleryl-APEK([AEEA-AEEA-γGlu-C18 diacid])PEEDASPEEIQRYYVSLRHYYNWLTRQRY-NH2 [Compound 84]
 | 3.09 |  | 0.106 | > 5 | > 5 | > 5 |  | B1
 | 4.33 |  | 0.235 | > 5 | > 5 | > 5 |  | B2
 | 1.96 |  | 0.107 | > 5 | > 5 | > 5 |  | Isovaleryl-APEK([AEEA-AEEA-γGlu-C18 diacid])PEEDATPEELQKYYVSLRHYYNWLTRQRY-NH2 [Compound 231]
4.6 | 0.75 | 3 |  |  |  |  | 11.1 | Isovaleryl-APAK([AEEA-AEEA-γGlu-C18 diacid])PEEDASPEELQRYYVSLRHYYNWLTRQRY-NH2 [Compound 203]
 | 6.94 |  | 0.284 | > 5 | > 5 | > 5 |  | B3
